This experiment is described as follows: Coupled dehydrogenase assays for transaminase activity of the Pseudomonas sp. proteins and ancestral reconstructions. The experiment is classed as biochemical. Particulars: for pH optimum: UV absorbance at 340 nm, pH range 7.5-10; for pH optimum / activity with ω-amino acids including long chain C11 and C12: 28° C.; for activity with ω-amino acids including long chain C11 and C12: 340 nm, pH 7.5-10; for activity of ancestral reconstruction proteins in the coupled assays: E. coli expressed, purified proteins. The method, then: Activity for each protein was assessed using coupled dehydrogenase assays as described previously. A typical assay comprised:
Substrate (6.25 mM final concentration in potassium phosphate buffer)
Co-substrate (pyruvate (0.5 mM final concentration) or α-KG (0.25 mM final concentration)
NAD (1.25 mM final concentration)
Dehydrogenase (1 μL from ADH-≧35 units/mL stock solution or GDH≧35 units/mg protein stock)
Transaminase (final concentration dependent)
Potassium phosphate buffer (100 mM)
UV absorbance at 340 nm was recorded at 28° C. over a pH range of 7.5-10 with a range of substrates.
Proteins encoded by p7N6, p7N15, p7N16, p7N17, p7N43 and p7N48 were expressed using an E. coli recombinant expression platform and subsequently purified.
Each of the proteins were assayed for substrate specificity. Substrates identified by assaying for each of the proteins are summarized below.

B1: p7: pyruvate: ω-amino acid transaminase from Pseudomonas sp., amino acid sequence SEQ ID NO:2 (protein, listed as Pseudomonas sp.)
chain: MGSSHHHHHHSSGLVPRGSHMTDYAKLFEQDRAHFMHPSTHAHDHASGALPGRIITGASGVRIRDHQGRELLDAFAGLYCVNIGYGRLEVADAIHEQAKQLAYYHTYVGHASEAIIELSARIIRDWAPAGMKKVYYGLSGSDANETQVKLVRYYNNVLGRPQKKKIISRQRGYHGSGIVTGSLTGLASFHQHFDLPVEGVKHTLCPHFYKAPAGMDEAAFVRHCAQELENLILAEGPDTVAAFIGEPVMGTGGIIVPPKGYWEAIQAVLAKYDVLLIADEVVCAFGRLGDKMGSQRHAMRPDLITTAKGLTSAYAPLSAVIVGEKVWDVIDSASTREGAMGHGWTYSGHPICAAAALANLDILERENITANAADVGGYLNQQLRQAFEGHPLVGEVRGDGMLAALEFMADREARTPFDAALKVGPKVSAACLERGMIARAMPHGDILGFAPPLVLSRAEADEVVGIAKAAVDAVAAEVL
B1: the pH optimum is given as roughly 10. In addition, for the setting “coupled dehydrogenase assay”, the smallest substrate accepted entry is recorded as “C4 (γ-aminobutyrate; GABA)”; the “activity with ω-amino acids including long chain C11 and C12” value is “shown the desired activity with ω-amino acids, notably including long chain amino acids C11 and C12”.

B2: p7N15: de novo peptide sequence based on p7, produced by ancestral reconstruction; SEQ ID NO:8 (protein)
chain: MTDLDQLFEMDRAHFMHPSTHAHDHASGALPGRIITGGKGIRIQDHEGREYIDAFAGLYCVNIGYGRTEVADAIYEQAKELAYYHTYVGHSTEAIIELSSRIIRDWAPAGMKKVYYGMSGSDANETQIKLVWYYNNVLGRPQKKKIISRQRGYHGSGIMTGSLTGLPSFHQHFDLPIERIKHTVCPHWYKAPAGMSEAQFVRYCADELEKLILAEGPDTVAAFIGEPVMGTGGIIPPPQGYWEAIQAVLNKYDILLIADEVVCGFGRLGSKMGSQHYGMKPDLITVAKGLTSAYAPLSGVIVGEKVWDVIEKGSQEHGPMGHGWTYSGHPICAAAALANLDILERENLTGNAADVGAYLQQRLRETFGGHPLVGEVRGVGMLAALEFMADKDARTPFDPALKVGPKVSAACLEDGMIARAMPHGDILGFAPPLVITRAEVDEIVGIAKQAVDEVADEVL
modifications: Molecule produced by ancestral reconstruction
For the molecule B2, the “activity of ancestral reconstruction proteins in the coupled assays” value (from here on “activity … in the coupled assays”) is recorded as “activity in accordance with p7”.

B3: p7N17: de novo peptide sequence based on p7, produced by ancestral reconstruction; SEQ ID NO:10 (protein)
chain: MTSLDQLFEEDRAHFMHPSTHAHDHASGALPGKIVTGGKGIRIEDHQGREYIDAFAGLYCVNIGYGRTEVADAIYEQAKQLAYYHTYVGHSTDAIIELSSRIIRDWAPAGMKKVYYGMSGSDANETQIKIVWYYNNVLGRPNKKKIISRERGYHGSGIVTGSLTGLPSFHQHFDLPIDRVKHTVCPHWYKAPAGMSEAQFVAYCVEELEKLIAREGADTIAAFIAEPVMGTGGIIAPPQGYWEAIQAVLRKHDILLISDEVVCGFGRLGSKMGAQHYGIKPDLITVAKGLTSAYAPLSGVIVGEKVWDVIEKGSQEHGPMGHGWTYSGHPICAAAALANLDILERENLTGNAADVGAYLQQRLHEAFGAHPLVGEVRGVGMLAALEFMADKDARTPFDPALKVGPKVSAAALEDGVIARAMPHGDILGFAPPLVTTRAEVDEIVGIVKQAVDEVADEVL
modifications: Molecule produced by ancestral reconstruction
Take B3: the “activity … in the coupled assays” value is “activity in accordance with p7”.

B4: p4: pyruvate: ω-amino acid transaminase from Pseudomonas sp., amino acid sequence SEQ ID NO:6 (protein, listed as Pseudomonas sp.)
chain: MTKQTSAQTQHWQALSREHHLAPFTDYKQLNEKGARIITKAEGVYLWDSEGNKILDGMAGLWCMNVGYGRKELAEVAYKQMLELPYYNLFFQTAHPPALELAKAIADIAPEGMNHVFFTGSGSESNDTVLRMVRHYWSIKGKPQKKVVIGRWNGYHGSTVAGVSLGGMKALHSQGDLPIPGIVHIAQPYWYGEGGDMSAEEFGVWAAEQLEKKILEVGEENVAAFIAEPIQGAGGVIVPPDTYWPKIREILAKYEILFIADEVICGFGRTGEWFGSQYYGNAPDLMPIAKGLTSGYIPMGGVIVRDEIVDTLNEGGEFYHGFTYSGHPVAAAVALENIRILREEKIVETVKAETAPYLQKRWQELADHPLVGEARGVGMVGALELVKNKKTRERFENGVGMLCREHCFRNGLIMRAVGDTMIISPPLVITKPEIDELITLARKCLDQTAAVALS
In the case of B4, the pH optimum was roughly 10. In addition, for the setting “coupled dehydrogenase assay”, the “activity with ω-amino acids including long chain C11 and C12” value was “shown the desired activity with ω-amino acids, notably including long chain amino acids C11 and C12”.

B5: p7N16: de novo peptide sequence based on p7, produced by ancestral reconstruction; SEQ ID NO:9 (protein)
chain: MQSLDQLFEMDRAHFMHPSTHAHDHASGALPGRIITGGKGIRIEDHEGREYIDAFAGLYCVNIGYGRTEVADAIYEQAKQLAYYHTYVGHSTDAIIELSSRIIRDWAPAGMKKVYYGMSGSDANETQIKLVWYYNNVLGRPNKKKIISRERGYHGSGIVTGSLTGLPSFHQHFDLPIDRVKHTVCPHWYRAPAGMSEAQFVAYCVEELEKLIAREGADTIAAFIAEPVMGTGGIIPPPQGYWEAIQAVLRKHDILLIADEVVCGFGRLGSKMGSQHYGIKPDLITVAKGLTSAYAPLSGVIVGEKVWDVIEKGSQEHGPMGHGWTYSGHPICAAAALANLDILERENLTGNAADVGAYLQQRLHEAFGAHPLVGEVRGVGMLAALEFMADKDARTPFDPALKVGPKVSAAALEDGMIARAMPHGDILGFAPPLVTTRAEVDEIVGIAKQAVDEVADEVL
modifications: Molecule produced by ancestral reconstruction
For the molecule B5, the “activity … in the coupled assays” value is “activity in accordance with p7”.

B6: p7N6: de novo peptide sequence based on p7, produced by ancestral reconstruction; SEQ ID NO:7 (protein)
chain: MTDFDQLFEQDRAHFMHPSTHAHDHASGALPGRIITGASGIRIRDHEGRELIDAFAGLYCVNIGYGRTEVADAIYKQAKELAYYHTYVGHSTEAIIELSSRIIRDWAPAGMKKVYYGLSGSDANETQIKLVRYYNNVLGRPQKKKIISRQRGYHGSGIMTGSLTGLPSFHQHFDLPVEGIKHTVCPHWYKAPAGMDEAAFVRYCADELEKLILAEGPDTVAAFIGEPVMGTGGIIVPPKGYWEAIQAVLNKYDVLLIADEVVCAFGRLGSKMGSQRYGMRPDLITTAKGLTSAYAPLSAVIVGEKVWDVIEKASQKEGAMGHGWTYSGHPICAAAALANLDILERENLTANAADVGAYLNQRLRETFEGHPLVGEVRGDGMLAALEFMADREARTPFDPALKVGPKVSAACLEDGMIARAMPHGDILGFAPPLVLTRAEADEIVGIAKAAVDEVAGEVL
modifications: Molecule produced by ancestral reconstruction
Consider B6, for which the “activity … in the coupled assays” value was “activity in accordance with p7”.

(Values after patent US20160208226A1, “Transaminase Biocatalysts” (COMMONWEALTH SCIENTIFIC AND INDUSTRIAL RESEARCH ORGANISATION, priority 2013, published 2016).)
